Experimental data as given in patent US8936806B2, “Periostin induces proliferation of cardiomyocytes and promotes cardiac regeneration” (Children's Medical Center Corporation, priority 2007, dated 2015).
Entries after “also recorded” stand apart in the source; their conditions may differ.

Key:
[1] = tested on: Adult male Sprague-Dawley rats; experiment: Cardiomyocyte cell cycle activity in vivo after intramyocardial injection; design: species or system rat; conditions: dispersed isolated cardiomyocytes
[2] = Diffusion range and presence of recombinant periostin in myocardium after epicardial Gelfoam patch; assay type: in vivo, rat; conditions: after 12 weeks
Experimental: To develop a long-term delivery system for recombinant periostin, we determined if recombinant periostin associated with Gelfoam, a biodegradable biological scaffold. Gelfoam patches (Pfizer, New York, N.Y.) of 1 cm^2 diameter were loaded with 100 μg of recombinant human periostin and incubated with 1 mL of PBS at 37° C. with continuous agitation for 10 weeks. The supernatant was replaced every 2 weeks and the concentration of recombinant periostin in the supernatant was determined by Western blot using a polyclonal antibody directed against human periostin (Abeam). The diffusion range of recombinant periostin in myocardium was determined with a polyclonal antibody directed against human periostin followed by immunofluorescence microscopy. Presence of periostin in the myocardium was determined by Western blot using a polyclonal antibody directed against human periostin (Abeam).
Adult male Sprague-Dawley rats (300 gm, Charles River Laboratories) underwent experimental myocardial infarction as described (del Monte, F. et al. Abrogation of ventricular arrhythmias in a model of ischemia and reperfusion by targeting myocardial calcium cycling. Proc Natl Acad Sci USA 101, 5622-7 (2004)). The survival rate was 67%. Gelfoam loaded with 100 μg of recombinant periostin or with buffer were applied over the myocardial infarction at the time of surgery. […]

[3] = tested on: primary adult rat ventricular cardiomyocytes; experiment: DNA synthesis (BrdU uptake, immunofluorescence) in primary adult rat ventricular cardiomyocytes; assay type: cell-based
Excerpt: Primary neonatal rat ventricular cardiomyocytes were isolated using the Neomyts kit (Cellutron, Highland Park, N.J.), seeded at a density of 10^5 cells/cm^2 onto gelatin-coated cover slips, stimulated for 3 days, and labeled with BrdU for the terminal 2 days. Primary adult ventricular cardiomyocytes were isolated from male (300 gm) Wistar rats (Charles River Laboratories) and maintained as described (Engel, F. B. et al. p38 MAP kinase inhibition enables proliferation of adult mammalian cardiomyocytes. Genes Dev 19, 1175-87 (2005)). Adult cardiomyocytes were stimulated daily for 9 days and labeled with 30 μM BrdU for the terminal 3 days. Cardiomyocytes were stimulated with periostin (500 ng/mL) and FGF (100 ng/mL). […] The vehicle used to dissolve factors or chemicals was added to unstimulated samples, which were then processed together with the test samples. DNA-synthesis was analyzed by visualization of BrdU uptake and cytokinesis was determined by detection of the cleavage furrow and the midbody with an antibody against aurora B kinase as described (Engel, F. B. et al. p38 MAP kinase inhibition enables proliferation of adult mammalian cardiomyocytes. Genes Dev 19, 1175-87 (2005)). Signals were visualized with secondary antibodies conjugated to Alexa 488, Alexa 546, Alexa 594, and Alexa 647 (Invitrogen). […] For image acquisition, the value for γ was set at 1 and the lookup table settings were linear. Primary adult rat ventricular cardiomyocytes were grown on gridded cover slips (Electron Microscopy Services, Ft. Washington, Pa.) and imaged in phase contrast at 10× magnification. Cardiomyocytes were transduced with an adenovirus leading to nuclear expression of histone2B-GFP (Shi, Q. & King, R. W. Nature 437, 1038-42 (2005)) under control of the chicken troponin T promoter ([…]. Am J Physiol Cell Physiol 286, […]-64 (2004)). Nuclei were visualized at 10× magnification with a mercury-arc lamp dimmed to 1.5% with a neutral density filter. […] Images of BrdU-positive cardiomyocytes were matched with the corresponding images from before stimulation. For quantification, differentiated cardiomyocytes were defined as striated rod-shaped structures with length/width ratio>1.5.

[4] = tested on: Adult male Sprague-Dawley rats; experiment: Cardiomyocyte cell cycle activity in vivo after intramyocardial injection; design: species or system rat; LVFW CM nuclei: unit not given here
Experimental: Experiments were performed in accordance with institutional guidelines of Massachusetts General Hospital. Injections and analyses were performed in a blinded fashion. Adult male Sprague-Dawley rats (300 gm, Charles River Laboratories) underwent thoracotomy and received intramyocardial injections of 50 μg of recombinant human periostin consisting of the fas1-4 domains, 50 μg of rat fibronectin, or 100 μL of 100 mM sodium acetate as a control (5 rats per group). The survival rate for this procedure was 80%. Injected periostin was confirmed by detection with a polyclonal antibody directed against human periostin (Abcam) and visualized by immunofluorescence microscopy. Intraperitoneal injections of BrdU (70 μmol/kg body weight) with a tissue half life of 2 hr were given every 48 hr, and rats were sacrificed after the third injection. Horizontal cryosections of 14 μm thickness spaced at 1 mm intervals were analyzed by laser scanning immunofluorescence microscopy. BrdU-positive cardiomyocyte nuclei and cytokineses were quantified on 16-20 sections per heart. Fibrosis and cardiomyocyte cross-sectional area were determined on 5 Masson's Trichrome-stained sections at the level of the injection at 40× magnification and quantified using the Metamorph software package (Molecular Devices Corp., Downingtown, Pa.).

[5] = tested on: adult ventricular cardiomyocytes; experiment: Transcription of fetal gene program (RT-PCR) in adult ventricular cardiomyocytes; assay type: cell-based, rat
[6] = tested on: differentiated cardiomyocytes; experiment: Hypertrophy by [3H]leucine uptake; assay type: cell-based, rat; conditions: phenylephrine 10 mM [sic]; all time points tested
Excerpt: Induction of the fetal gene program is accompanied by increased protein synthesis leading to cardiomyocyte hypertrophy. We assessed cardiomyocyte hypertrophy by measuring uptake of [^3H]leucine.

[7] = H2B-GFP, after 6 days, 3 days BrdU labeling, stimulus not named in block (periostin section)
[8] = 1 week after intracardiac injection

B1: periostin: Recombinant periostin, purified from HEK293 cells expressing the full-length human cDNA; secreted protein of 834 amino acids (Seq ID. No. 1) (protein, listed as Homo sapiens)
chain: MIPFLPMFSLLLLLIVNPINANNHYDKILAHSRIRGRDQGPNVCALQQILGTKKKYFSTCKNWYKKSICGQKTTVLYECCPGYMRMEGMKGCPAVLPIDHVYGTLGIVGATTTQRYSDASKLREEIEGKGSFTYFAPSNEAWDNLDSDIRRGLESNVNVELLNALHSHMINKRMLTKDLKNGMIIPSMYNNLGLFINHYPNGVVTVNCARIIHGNQIATNGVVHVIDRVLTQIGTSIQDFIEAEDDLSSFRAAAITSDILEALGRDGHFTLFAPTNEAFEKLPRGVLERFMGDKVASEALMKYHILNTLQCSESIMGGAVFETLEGNTIEIGCDGDSITVNGIKMVNKKDIVTNNGVIHLIDQVLIPDSAKQVIELAGKQQTTFTDLVAQLGLASALRPDGEYTLLAPVNNAFSDDTLSMVQRLLKLILQNHILKVKVGLNELYNGQILETIGGKQLRVFVYRTAVCIENSCMEKGSKQGRNGAIHIFREIIKPAEKSLHEKLKQDKRFSTFLSLLEAADLKELLTQPGDWTLFVPTNDAFKGMTSEEKEILIRDKNALQNIILYHLTPGVFIGKGFEPGVTNILKTTQGSKIFLKEVNDTLLVNELKSKESDIMTTNGVIHVVDKLLYPADTPVGNDQLLEILNKLIKYIQIKFVRGSTFKEIPVTVYTTKIITKVVEPKIKVIEGSLQPIIKTEGPTLTKVKIEGEPEFRLIKEGETITEVIHGEPIIKKYTKIIDGVPVEITEKETREERIITGPEIKYTRISTGGGETEETLKKLLQEEVTKVTKFIEGGDGHLFEDEEIKRLLQGDTPVRKLQANKKVQGSRRRLREGRSQ
Question: Which results are given for B1?
Answer: H3P-positive mononucleated cardiomyocytes [1]: 2±0.2%; presence of periostin in the left ventricle by immunoblotting [2]: confirmed presence; distance from the epicardium to the farthest diffusion range of periostin ([2]; epicardial Gelfoam patch): 461±62; increase of cardiomyocyte DNA synthesis ([3]; 9 days periostin 500 ng/mL, vs non-stimulated): 14 fold; cardiomyocyte DNA synthesis ([3]; 9 days stimulation (periostin 500 ng/mL, FGF 100 ng/mL), BrdU terminal 3 days): 1.1±0.2%; BrdU-positive binucleated cardiomyocytes [3, 7]: 0.2±0.03%; BrdU-positive mononucleated cardiomyocytes [3, 7]: 1.7±0.3%; start of periostin-induced cardiomyocyte DNA synthesis ([3]; time-course of stimulation): 3 days; LVFW BrdU-positive CM nuclei [4, 8]: 0.051 ± 0.0021 %; LVFW CM nuclei [4, 8]: 10.3 ± 0.3 10^$$ per heart; LVFW cytokineses [4, 8]: 0.008±0.002%; LVFW BrdU-positive CM nuclei ([4]; 1 week after intracardiac injection, 3 BrdU injections): 5,322±363 per heart; LVFW BrdU-positive CM nuclei ([4]; 1 week after intracardiac injection, 3 BrdU injections, listed as PN): 5411 ± 376 per heart; LVFW myocardial volume ([4]; 1 week after intracardiac injection, 50 μg periostin (fas1-4 domains) or 50 μg rat fibronectin): 211.3 ± 12.3 mm^3; LVFW cytokineses ([4]; 1 week after intracardiac injection, listed as Periostin): 821±176 per heart; fibrosis after intramyocardial injection ([4]; FIG. 4a): did not induce; hypertrophy (cardiomyocyte cross-sectional area) after intramyocardial injection ([4]; FIG. 4b): did not induce; H3P-positive binucleated cardiomyocytes ([4]; dispersed isolated cardiomyocytes, in vivo): 0.04±0.01%; DNA synthesis, of cardiomyocyte nuclei in the injected area ([4]; rat, in vivo): 0.7±0.1%; cytokinesis, of cardiomyocyte nuclei in the injected area ([4]; rat, in vivo): 0.1±0.03%; increase of DNA synthesis compared with buffer-injected hearts ([4]; rat, in vivo): 8 fold; increase of cytokinesis compared with buffer-injected hearts ([4]; rat, in vivo): 11.5 fold; transcription of SERCA2 [5]: slightly increased; transcription of β-MHC, SMA and ANF [5]: not increased; [3H]leucine uptake (hypertrophy) [6]: did not induce uptake; also recorded: did not induce hypertrophy
